Assay results taken from publication PMC8041869.

How the values were obtained:
[1] = target: SARS-CoV-2 S-protein receptor-binding domain (SARS-CoV-2) (UniProt P0DTC2); experiment: BLI
[2] = target: SARS-CoV-2 S-protein receptor-binding domain (SARS-CoV-2) (UniProt P0DTC2); experiment: ELISA

human ACE2 extracellular domain, E37K variant, Fc-tagged dimeric form (from UniProt Q9BYF1-1 18-615) (Fc fusion)
Kd [1]: 22.7 nM | EC50 [2]: 15.8 nM
